The data set concerns the molecule itself. Nature of the data set: SEC. (In general: SEC sorts molecules by how far they enter the pores of the column.)

B1: Bacillus subtilis xanthine phosphoribosyltransferase (XPRT), hexahistidine tag removed (enzyme, UniProt P42085 1-194, looked up)
chain: MEALKRKIEEEGVVLSDQVLKVDSFLNHQIDPLLMQRIGDEFASRFAKDGITKIVTIESSGIAPAVMTGLKLGVPVVFARKHKSLTLTDNLLTASVYSFTKQTESQIAVSGTHLSDQDHVLIIDDFLANGQAAHGLVSIVKQAGASIAGIGIVIEKSFQPGRDELVKLGYRVESLARIQSLEEGKVSFVQEVHS
Consider B1, for which the “stoichiometry N” value turned out to be 2.

The stoichiometry N is a count of units in the complex or per binding partner.

These data come from PMC7323586 (Journal of molecular biology, 2020).
